Patent US20240034815A1 (Xencor, published 2024)
Where a chain is given by its changes, count along the chain named.

B1: XENP34920 (bispecific antibody)
heavy 1: QVQLVQSGAEVKKPGASVKVSCKASGYTFTDYEMHWVRQAPGQGLEWMGALEPKTGDTAYSQKFQGRVTMTADKSISTAYMELSRLRSDDTAVYYCTRFYSYTYWGQGTLVTVSSASTKGPSVFPLAPSSKSTSGGTAALGCLVKDYFPEPVTVSWNSGALTSGVHTFPAVLQSSGLYSLSSVVTVPSSSLGTQTYICNVNHKPSDTKVDKKVEPKSCDKTHTCPPCPAPPVAGPSVFLFPPKPKDTLMISRTPEVTCVVVDVKHEDPEVKFNWYVDGVEVHNAKTKPREEEYNSTYRVVSVLTVLHQDWLNGKEYKCKVSNKALPAPIEKTISKAKGQPREPQVYTLPPSREEMTKNQVSLTCDVSGFYPSDIAVEWESDGQPENNYKTTPPVLDSDGSFFLYSKLTVDKSRWEQGDVFSCSVMHEALHNHYTQKSLSLSPGK
heavy 2: QVQLVQSGAEVKKPGASVKVSCKASGYTFTDYEMHWVRQAPGQGLEWMGALEPKTGDTAYSQKFQGRVTMTADKSISTAYMELSRLRSDDTAVYYCTRFYSYTYWGQGTLVTVSSASTKGPSVFPLAPSSKSTSGGTAALGCLVKDYFPEPVTVSWNSGALTSGVHTFPAVLQSSGLYSLSSVVTVPSSSLGTQTYICNVNHKPSNTKVDKKVEPKSCGGGGSGGGGSQAVVTQEPSLTVSPGGTVTLTCGSSTGAVTTSNYANWVQQKPGKSPRGLIGGTNKRAPGVPARFSGSLLGGKAALTISGAQPEDEADYYCALWYSNHWVFGGGTKLTVLGKPGSGKPGSGKPGSGKPGSEVQLVESGGGLVQPGGSLRLSCAASGFTFSTYAMNWVRQAPGKGLEWVGRIRSKANNYATYYADSVKGRFTISRDDSKNTLYLQMNSLRAEDTAVYYCVRHGNFGDSYVSWFAYWGQGTLVTVSSGGGGSGGGGSKTHTCPPCPAPPVAGPSVFLFPPKPKDTLMISRTPEVTCVVVDVKHEDPEVKFNWYVDGVEVHNAKTKPREEQYNSTYRVVSVLTVLHQDWLNGKEYKCKVSNKALPAPIEKTISKAKGQPREPQVYTLPPSREQMTKNQVKLTCLVKGFYPSDIAVEWESNGQPENNYKTTPPVLDSDGSFFLYSKLTVDKSRWQQGNVFSCSVMHEALHNHYTQKSLSLSPGK
light: DVVMTQSPLSLPVTLGQPASISCRSSQSLVHSSGNTYLHWYQQRPGQSPRLLIYKVSNRFSGVPDRFSGSGSGTDFTLKISRVEAEDVGVYFCSQSTHVPPTFGSGTKLEIKRTVAAPSVFIFPPSDEQLKSGTASVVCLLNNFYPREAKVQWKVDNALQSGNSQESVTEQDSKDSTYSLSSTLTLSKADYEKHKVYACEVTHQGLSSPVTKSFNRGEC
B2: XENP36140 (GPC3-A H1.1_L1.31 formatted as 1+1 Fab-scFv-Fc with CD3 High-Int #1 scFv) (bispecific antibody)
heavy: B1 heavy 1
scFv-Fc: not shown
light: B1 light with S33N, K55Y, S96N
notes: 1+1 Fab-scFv-Fc, human IgG1 heterodimeric backbone; treated as one molecule; also called [GPC3]H1.1_L1.31

Tests used:
[1] = target: T1, cell surface GPC3 on GPC3-expressing cell lines (HepG2 GPC3^high, Huh7 GPC3^med) (UniProt P51654 25-554); assay: cell-based or functional assay
His-tagged human GPC3 = target: T2, His-tagged human GPC3 (human, UniProt P51654 25-559, limits assumed); assay: Octet (BLI); His-tagged GPC3 captured on HIS1K sensors, bsAb in solution
T2 construct: Captured on HIS1K sensors in the Octet assay; also called human GPC3 antigen; Glypican 3; not shown: His tag
Method: After humanization, GPC3 binding arms were engineered with single point mutations in the variable light domain with the aim to create a ladder of GPC3 binding affinity, illustrative sequences for which are depicted in FIG. 13. 73 variable light domain variants were engineered and paired with GPC3-A H1.1 (see Example 3C for description of GPC3-A H1.1 variant). The GPC3-A variants were engineered in the 1+1 Fab-scFv-Fc bsAb format and binding for GPC3 antigen was measured using Octet, a BioLayer Interferometry (BLI)-based method. Experimental steps for Octet generally include the following: Immobilization (capture of ligand to a biosensor); Association (dipping of ligand-coated biosensors into wells containing the analyte); and Dissociation (returning of biosensors to well containing buffer). For ease of clinical development (e.g. by investigating the therapeutics in model animals), it is useful for the binding domains to be cross-reactive for cynomolgus antigen; therefore, binding to both human and cynomolgus GPC3 antigen were investigated. His-tagged human and cynomolgus GPC3 were captured on HIS1K sensors then dipped into multiple concentrations of the bispecific antibodies. The resulting dissociation constant (KD) are depicted in FIG. 23.

[2] = target: T1, cell surface GPC3 on GPC3-expressing …; assay: flow cytometry on HepG2 (GPC3high) cells, secondary antibody stain
Method: (§1) Next, binding of the variants to cell surface GPC3 was investigated. Illustrative affinity variants H1.1_L1.29, H1.1_L1.16, and H1.1_L1.31 were engineered in the 1+1 Fab-scFv-Fc format. […] Cells were then washed and stained with a secondary antibody (typically anti-human Fc AlexaFlour647) for 1 hr at 4° C. After 2 more washes, cells were analyzed by flow cytometry.

[3] = target: T1, cell surface GPC3 on GPC3-expressing …; assay: flow cytometry on HepG2 (GPC3high) cells, anti-human Fc secondary
Method: as §1

T1 sequence (P51654 25-554 limits assumed): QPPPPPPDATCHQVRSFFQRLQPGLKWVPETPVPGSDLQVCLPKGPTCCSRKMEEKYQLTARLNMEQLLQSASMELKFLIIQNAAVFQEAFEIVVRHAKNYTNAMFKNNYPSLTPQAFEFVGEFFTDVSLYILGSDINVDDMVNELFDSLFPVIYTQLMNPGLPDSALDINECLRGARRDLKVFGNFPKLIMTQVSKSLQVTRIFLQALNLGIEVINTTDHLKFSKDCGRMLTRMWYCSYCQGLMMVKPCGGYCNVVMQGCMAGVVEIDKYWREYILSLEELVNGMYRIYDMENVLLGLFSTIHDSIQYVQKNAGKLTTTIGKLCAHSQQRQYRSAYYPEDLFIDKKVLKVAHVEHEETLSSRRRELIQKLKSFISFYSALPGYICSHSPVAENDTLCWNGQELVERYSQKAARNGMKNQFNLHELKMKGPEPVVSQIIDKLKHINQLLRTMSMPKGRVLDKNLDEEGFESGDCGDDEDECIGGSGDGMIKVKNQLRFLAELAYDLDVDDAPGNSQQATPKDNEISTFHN
T2 sequence (P51654 25-559 limits assumed): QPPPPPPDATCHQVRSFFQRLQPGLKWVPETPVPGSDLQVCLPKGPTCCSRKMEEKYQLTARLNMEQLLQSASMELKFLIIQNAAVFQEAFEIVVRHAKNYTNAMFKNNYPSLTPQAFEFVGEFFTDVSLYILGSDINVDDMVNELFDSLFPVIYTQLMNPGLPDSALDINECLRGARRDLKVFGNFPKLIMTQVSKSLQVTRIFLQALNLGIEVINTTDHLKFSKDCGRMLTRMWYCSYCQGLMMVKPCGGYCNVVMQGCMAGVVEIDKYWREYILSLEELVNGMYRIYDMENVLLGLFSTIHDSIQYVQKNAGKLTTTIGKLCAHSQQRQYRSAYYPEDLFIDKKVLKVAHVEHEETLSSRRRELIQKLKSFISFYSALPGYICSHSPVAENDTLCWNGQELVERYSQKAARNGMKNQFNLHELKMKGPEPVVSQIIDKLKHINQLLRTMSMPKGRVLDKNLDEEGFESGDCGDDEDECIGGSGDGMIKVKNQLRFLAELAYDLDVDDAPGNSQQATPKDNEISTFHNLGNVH

Row | Binder | EC50 of RTCC (2D RTCC on Incucyte, HepG2, 10:1 effector:target ratio) [1] [µg/mL] | Kd (His-tagged human GPC3) [nM] | EC50 (read off the curve) [2] [µg/mL] | EC50 (read off the curve) [3] [µg/mL]
1 | B1 | < 0.1 | – | – | –
2 | B2 | – | 400 | ~3 | ~3
